Assay results: PMC8634136 (The EMBO Journal, 2021)

T1: MCM3 (human, UniProt P25205-1 1-808)
T1 construct: human MCM3, subunit of hsCMG; the construct lacks the 45 additional N-terminal residues of the longer isoform used in PDB 6XTX; Subunit of the CMG helicase in the replisome structure; source: Hi5 insect cells co-infected with baculoviruses for MCM2-7, GINS and CDC45; purified as hsCMG (Flag M2, Strep-Tactin XT, MonoQ)
T1 sequence: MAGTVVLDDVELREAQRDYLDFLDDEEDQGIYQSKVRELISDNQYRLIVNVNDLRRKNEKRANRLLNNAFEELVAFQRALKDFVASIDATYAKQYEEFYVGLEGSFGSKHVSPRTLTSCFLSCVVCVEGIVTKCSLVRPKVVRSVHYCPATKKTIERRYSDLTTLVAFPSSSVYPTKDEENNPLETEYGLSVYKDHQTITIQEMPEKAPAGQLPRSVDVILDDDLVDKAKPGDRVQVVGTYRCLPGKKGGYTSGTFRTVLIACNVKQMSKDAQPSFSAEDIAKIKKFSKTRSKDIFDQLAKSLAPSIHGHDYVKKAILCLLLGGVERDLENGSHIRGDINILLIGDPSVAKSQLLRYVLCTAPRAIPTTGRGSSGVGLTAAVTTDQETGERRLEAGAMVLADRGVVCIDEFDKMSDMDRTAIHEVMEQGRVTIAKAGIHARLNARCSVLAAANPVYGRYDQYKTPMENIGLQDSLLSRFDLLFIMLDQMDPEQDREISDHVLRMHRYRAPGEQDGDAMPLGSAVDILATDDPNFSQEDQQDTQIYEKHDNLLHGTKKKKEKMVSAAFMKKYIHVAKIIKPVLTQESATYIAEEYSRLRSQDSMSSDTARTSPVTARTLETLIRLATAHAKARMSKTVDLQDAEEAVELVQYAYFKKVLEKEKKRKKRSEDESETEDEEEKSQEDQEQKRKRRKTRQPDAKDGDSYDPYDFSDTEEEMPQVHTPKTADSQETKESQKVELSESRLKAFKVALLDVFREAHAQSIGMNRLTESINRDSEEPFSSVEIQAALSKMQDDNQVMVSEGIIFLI

B1: MCM6 (natural protein, human)
chain: MDLAAAAEPGAGSQHLEVRDEVAEKCQKLFLDFLEEFQSSDGEIKYLQLAEELIRPERNTLVVSFVDLEQFNQQLSTTIQEEFYRVYPYLCRALKTFVKDRKEIPLAKDFYVAFQDLPTRHKIRELTSSRIGLLTRISGQVVRTHPVHPELVSGTFLCLDCQTVIRDVEQQFKYTQPNICRNPVCANRRRFLLDTNKSRFVDFQKVRIQETQAELPRGSIPRSLEVILRAEAVESAQAGDKCDFTGTLIVVPDVSKLSTPGARAETNSRVSGVDGYETEGIRGLRALGVRDLSYRLVFLACCVAPTNPRFGGKELRDEEQTAESIKNQMTVKEWEKVFEMSQDKNLYHNLCTSLFPTIHGNDEVKRGVLLMLFGGVPKTTGEGTSLRGDINVCIVGDPSTAKSQFLKHVEEFSPRAVYTSGKASSAAGLTAAVVRDEESHEFVIEAGALMLADNGVCCIDEFDKMDVRDQVAIHEAMEQQTISITKAGVKATLNARTSILAAANPISGHYDRSKSLKQNINLSAPIMSRFDLFFILVDECNEVTDYAIARRIVDLHSRIEESIDRVYSLDDIRRYLLFARQFKPKISKESEDFIVEQYKHLRQRDGSGVTKSSWRITVRQLESMIRLSEAMARMHCCDEVQPKHVKEAFRLLNKSIIRVETPDVNLDQEEEIQMEVDEGAGGINGHADSPAPVNGINGYNEDINQESAPKASLRLGFSEYCRISNLIVLHLRKVEEEEDESALKRSELVNWYLKEIESEIDSEEELINKKRIIEKVIHRLTHYDHVLIELTQAGLKGSTEGSESYEEDPYLVVNPNYLLED
notes: MCM6, human; Stood in the structure as a subunit of m1; source: Hi5 insect cells, purified as a subunit of hsCMG
B2: TIMELESS (natural protein, human)
chain: MDLHMMNCELLATCSALGYLEGDTYHKEPDCLESVKDLIRYLRHEDETRDVRQQLGAAQILQSDLLPILTQHHQDKPLFDAVIRLMVNLTQPALLCFGNLPKEPSFRHHFLQVLTYLQAYKEAFASEKAFGVLSETLYELLQLGWEERQEEDNLLIERILLLVRNILHVPADLDQEKKIDDDASAHDQLLWAIHLSGLDDLLLFLASSSAEEQWSLHVLEIVSLMFRDQNPEQLAGVGQGRLAQERSADFAELEVLRQREMAEKKTRALQRGNRHSRFGGSYIVQGLKSIGERDLIFHKGLHNLRNYSSDLGKQPKKVPKRRQAARELSIQRRSALNVRLFLRDFCSEFLENCYNRLMGSVKDHLLREKAQQHDETYYMWALAFFMAFNRAASFRPGLVSETLSVRTFHFIEQNLTNYYEMMLTDRKEAASWARRMHLALKAYQELLATVNEMDISPDEAVRESSRIIKNNIFYVMEYRELFLALFRKFDERCQPRSFLRDLVETTHLFLKMLERFCRSRGNLVVQNKQKKRRKKKKKVLDQAIVSGNVPSSPEEVEAVWPALAEQLQCCAQNSELSMDSVVPFDAASEVPVEEQRAEAMVRIQDCLLAGQAPQALTLLRSAREVWPEGDVFGSQDISPEEEIQLLKQILSAPLPRQQGPEERGAEEEEEEEEEEEEELQVVQVSEKEFNFLDYLKRFACSTVVRAYVLLLRSYQQNSAHTNHCIVKMLHRLAHDLKMEALLFQLSVFCLFNRLLSDPAAGAYKELVTFAKYILGKFFALAAVNQKAFVELLFWKNTAVVREMTEGYGSLDDRSSSRRAPTWSPEEEAHLRELYLANKDVEGQDVVEAILAHLNTVPRTRKQIIHHLVQMGLADSVKDFQRKGTHIVLWTGDQELELQRLFEEFRDSDDVLGHIMKNITAKRSRARIVDKLLALGLVAERRELYKKRQKKLASSILPNGAESLKDFCQEDLEEEENLPEEDSEEEEEGGSEAEQVQGSLVLSNENLGQSLHQEGFSIPLLWLQNCLIRAADDREEDGCSQAVPLVPLTEENEEAMENEQFQQLLRKLGVRPPASGQETFWRIPAKLSPTQLRRAAASLSQPEEEQKLQPELQPKVPGEQGSDEEHCKEHRAQALRALLLAHKKKAGLASPEEEDAVGKEPLKAAPKKRQLLDSDEEQEEDEGRNRAPELGAPGIQKKKRYQIEDDEDD
notes: Stood in the structure as a subunit of m3; residues 7-803 modelled (527-684 not visualised)
B3: POLE2 (natural protein, human)
chain: MAPERLRSRALSAFKLRGLLLRGEAIKYLTEALQSISELELEDKLEKIINAVEKQPLSSNMIERSVVEAAVQECSQSVDETIEHVFNIIGAFDIPRFVYNSERKKFLPLLMTNHPAPNLFGTPRDKAEMFRERYTILHQRTHRHELFTPPVIGSHPDESGSKFQLKTIETLLGSTTKIGDAIVLGMITQLKEGKFFLEDPTGTVQLDLSKAQFHSGLYTEACFVLAEGWFEDQVFHVNAFGFPPTEPSSTTRAYYGNINFFGGPSNTSVKTSAKLKQLEEENKDAMFVFLSDVWLDQVEVLEKLRIMFAGYSPAPPTCFILCGNFSSAPYGKNQVQALKDSLKTLADIICEYPDIHQSSRFVFVPGPEDPGFGSILPRPPLAESITNEFRQRVPFSVFTTNPCRIQYCTQEITVFREDLVNKMCRNCVRFPSSNLAIPNHFVKTILSQGHLTPLPLYVCPVYWAYDYALRVYPVPDLLVIADKYDPFTTTNTECLCINPGSFPRSGFSFKVFYPSNKTVEDSKLQGF
notes: human POLE2, subunit of Pol ε; residues 1-527 modelled; Purified with POLE1, POLE3 (C-terminal TEV CBP tag) and POLE4

Columns and labels:
Details in all cases: both partners purified
TIMELESS = target: B2; experiment: cryo-EM structure; replisome reconstituted on fork DNA with AMP-PNP, isolated on a glycerol gradient with glutaraldehyde and BS3; 3.2 Å overall; a sample without CLASPIN solved at 3.4 Å
CLASPIN = target: T2, CLASPIN (human, UniProt Q9HAW4 1-1339); experiment: as above
T2 construct: CLASPIN, human; Only residues 284-319, 525-540 and 592-618 are modelled in the structure; source: Hi5 insect cells (baculovirus), purified (Flag M2, Superose 6)

MCM3 = target: T1, MCM3; experiment: cryo-EM structure; core human replisome (100 nM hsCMG with 1.5-fold excess of AND-1, TIMELESS-TIPIN, Pol ε, CLASPIN) on fork DNA with AMP-PNP; glycerol gradient with glutaraldehyde and BS3; consensus map 3.2 Å and multi-body map of Pol ε/CDC45/GINS; PDB 7PFO

T2 sequence (Q9HAW4 whole entry, the tested form may be a part): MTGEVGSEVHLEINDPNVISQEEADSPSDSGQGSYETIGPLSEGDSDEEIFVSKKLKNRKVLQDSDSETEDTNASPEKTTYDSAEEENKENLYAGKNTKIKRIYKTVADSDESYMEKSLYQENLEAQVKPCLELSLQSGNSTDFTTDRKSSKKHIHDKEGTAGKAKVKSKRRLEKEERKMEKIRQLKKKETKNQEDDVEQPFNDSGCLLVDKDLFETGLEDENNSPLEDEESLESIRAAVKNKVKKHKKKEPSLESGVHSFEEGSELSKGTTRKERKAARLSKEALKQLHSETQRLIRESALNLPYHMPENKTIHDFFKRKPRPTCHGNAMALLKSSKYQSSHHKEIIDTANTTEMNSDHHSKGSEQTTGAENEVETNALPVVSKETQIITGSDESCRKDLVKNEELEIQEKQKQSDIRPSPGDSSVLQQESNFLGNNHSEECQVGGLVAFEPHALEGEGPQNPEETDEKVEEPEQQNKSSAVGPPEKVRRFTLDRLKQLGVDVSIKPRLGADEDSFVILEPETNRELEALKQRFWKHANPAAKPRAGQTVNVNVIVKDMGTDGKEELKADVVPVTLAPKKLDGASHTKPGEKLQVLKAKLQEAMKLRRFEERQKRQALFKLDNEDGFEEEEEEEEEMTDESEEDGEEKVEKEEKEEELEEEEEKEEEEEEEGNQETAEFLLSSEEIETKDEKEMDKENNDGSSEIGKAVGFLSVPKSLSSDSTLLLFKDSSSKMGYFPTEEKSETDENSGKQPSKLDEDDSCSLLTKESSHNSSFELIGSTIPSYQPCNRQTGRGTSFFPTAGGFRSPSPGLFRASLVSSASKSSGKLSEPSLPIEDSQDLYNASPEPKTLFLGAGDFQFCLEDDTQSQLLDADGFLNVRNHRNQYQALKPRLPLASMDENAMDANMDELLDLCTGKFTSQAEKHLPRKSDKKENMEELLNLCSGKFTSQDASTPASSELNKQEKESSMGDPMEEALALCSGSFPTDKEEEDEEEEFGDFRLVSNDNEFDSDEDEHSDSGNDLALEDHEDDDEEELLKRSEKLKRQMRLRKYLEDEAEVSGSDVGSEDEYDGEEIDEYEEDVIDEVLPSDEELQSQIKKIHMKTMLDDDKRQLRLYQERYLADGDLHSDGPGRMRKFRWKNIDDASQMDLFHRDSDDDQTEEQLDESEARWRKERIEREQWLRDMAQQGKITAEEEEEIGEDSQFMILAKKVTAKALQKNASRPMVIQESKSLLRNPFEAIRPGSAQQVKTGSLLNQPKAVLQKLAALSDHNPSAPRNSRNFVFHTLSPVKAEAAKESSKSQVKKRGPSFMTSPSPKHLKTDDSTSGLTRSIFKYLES

binding result (TIMELESS)	binding result (CLASPIN)	binding result (MCM3)	Binder
binds	binds		B1
	binds		B2
		binds	B3
